In patent US11466067B2 (priority 2019, dated 2022):

Experiments:
[1] = Oral gavage 10 mg/kg in mice: hIL-10 and IL-1Ra time course; type: in vivo
Source text: The inflammatory actions of IL-1β are modulated by the presence of a specific receptor antagonist known as IL-1Ra. Increased serum IL-1Ra levels can be induced by IL-10, which can occur in the absence of a pro-inflammatory state. With an appreciation of uncertainties associated with how much and when biologically active delivery construct is released from the stomach to reach the small intestine as well as the timing of its uptake and actions within the Lamina propria following oral gavage, we examined IL-1Ra to function in non-inflamed mice as a biomarker of the IL-10 delivery construct's actions.
To test this question, the delivery construct was directly deposited onto the luminal surface of colonic intestinal mucosa in a nonhuman primate model.

[2] = tested on: circulating cytokines; assay: Plasma cytokines by MSD 10-plex, oxazolone dose response; set-up: species or system mice; conditions: mouse, in vivo
Source text: (§1) Plasma cytokines were quantified using the V-plex Proinflammatory Panel 1 Mouse Kit. Plasma IL-1Ra was quantitated by sandwich immunoassay using an antibody pair from the Mouse IL-1Ra/IL-1F3 DuoSet ELISA (R&D Systems #DY480), Streptavidin SULFO-TAG Labeled (MSD #R32AD-1), Multi-Array 96 Plate Pack, SECTOR Plate MSD #L15XA-3 and Read Buffer T (4×) (MSD #R92TC-2). Samples were read on the QuickPlex SQ 120 plate reader (Meso Scale Discovery, Rockville, Md.).

[3] = tested on: STAT3 phosphorylation; assay: pSTAT3 and hIL-10 immunofluorescence in intestine 40 min post oral gavage; type: in vivo, rat
Experimental: This observation is consistent with findings in mice that intestinal epithelial cells can express IL-10 receptors at their apical surface under certain conditions associated with development and maintenance of barrier function. […] In order to quantify how test articles affected intestinal IL-10 signal transduction pathways, image analysis was performed: high-throughput image batches were collected, segmented by epithelial versus Lamina propria localization, and then by cellular features.

[4] = Purification with and without sulfitolysis: SEC-HPLC forms, yield, dimer recovery
Experimental: Refolding in both processes was carried out at 4° C. The refolding solution used in both processes contained 1 mM reduced glutathione, 0.5 mM oxidized glutathione, 1M Arginine-HCl, 250 mM sucrose, 100 mM Tris pH 8.5 at 4° C., and 2 mM EDTA.

[5] = Tablet compression force screening: tablet properties, dimer purity and recovery; type: physicochemical
Experimental: Various compression forces were used to create F1 tablets (TABLE 31) and F2 tablets (TABLE 32). Dimer purity of the target construct was also examined following compaction into a tablet. […] Dimer recovery was also assessed following dissolution of various tablets at pH 7.0 (FIGS. 20A-20D).
An additional tablet (F3) was created, which was similar to an F1 tablet but with glyceryl dibehenate in place of magnesium stearate (TABLE 33). This substitution was made due to incompatibility of magnesium stearate in dissolution of target constructs in solution.

[6] = tested on: polarized gut epithelial cells; assay: In vivo transcytosis across gut epithelium after intraluminal injection; set-up: species or system Wistar rats; conditions: luminal application, rat jejunum
Experimental: In vivo transcytosis was tested using male Wistar rats. Male Wistar rats were housed 3-5 per cage with a 12/12 h light/dark cycle and were about 225-275 g (approximately 6-8 weeks old) when placed on study. Experiments were conducted during the light phase using a non-recovery protocol that uses continuous isoflurane anesthesia. A 4-5 cm midline abdominal incision that exposed mid-jejunum regions was conducted. Stock solutions at 3.86×10^−5M of delivery construct were prepared in phosphate buffered saline (PBS), with 50 μL (per 250 g rat) being administered by intraluminal injection (ILI) using a 29-gauge needle. The injection site mesentery was then marked with a permanent marker. At study termination, a 3-5 mm region that captured the marked intestine segment was isolated and processed for microscopic assessment. The in vivo experiments were performed in accordance with the U.K. Animals (Scientific Procedures) Act of 1986, the European Communities Council Directive of 1986 (86/609/EEC).

[7] = Intracolonic spray in NHP: IL-1Ra, pSTAT3, construct, IL-10; type: in vivo, cynomolgus monkeys
Source text: This was achieved using a colonoscope with an associated spray nozzle. In this way, refined information for onset and duration of IL-1Ra induction could be obtained at specific local doses. […] The variability of pSTAT3/total STAT3 detected was consistent with tissue capture and stability challenges in this in vivo model. Measurement of tissue delivery construct levels had similar tissue capture and stability challenges, showing low and variable amounts in the tissue samples collected (FIG. 143). […] Since IL-10 can induce cells to produce more IL-10, we also looked for induced IL-10. […] It is important to note, due to the similarity of human and NHP IL-10, that ELISA values shown could also include hIL-10 that has somehow separated from the carrier domain of the delivery construct molecule. While this cannot be ruled out, no other data supports this as an outcome and it appears likely that the majority, if not all, tissue and serum IL-10 measured represents an NHP source.

[8] = Pan-colonic administration via sigmoidoscopy in NHP: plasma PK/PD; type: in vivo, cynomolgus monkeys
Experimental: IL-10 delivery construct solution (at concentrations of 0.1, 0.3 and 1.0 mg/mL for the low, mid and high-dose groups respectively) was administered via the rectal route using sigmoidoscopy and a syringe connected to a spray nozzle with a 360° spray pattern. Serial biopsy samples were collected by sigmoidoscopy (pre-dose, 0.25, 0.5, 0.75, 8 and 24-28 hours post dose). Serial plasma samples from 0 min pre-dose to between 24-28 hours post-dose were collected for analysis for the IL-10 delivery construct.

[9] = tested on: circulating cytokines; assay: Plasma cytokines by MSD V-plex Proinflammatory Panel 1 (Example 14); type: in vivo, mice
Source text: as §1

B1: IL-10 delivery construct: recombinant homodimeric fusion protein: N-terminal methionine, cholix386 domain, polyGlySer spacer, recombinant human IL-10 (protein)
chain: MVEEALNIFDECRSPCSLTPEPGKPIQSKLSIPSDVVLDEGVLYYSMTINDEQNDIKDEDKGESIITIGEFATVRATRHYVNQDAPFGVIHLDITTENGTKTYSYNRKEGEFAINWLVPIGEDSPASIKISVDELDQQRNIIEVPKLYSIDLDNQTLEQWKTQGNVSFSVTRPEHNIAISWPSVSYKAAQKEGSRHKRWAHWHTGLALCWLVPMDAIYNYITQQNCTLGDNWFGGSYETVAGTPKVITVKQGIEQKPVEQRIHFSKGNAMSALAAHRVCGVPLETLARSRKPRDLTDDLSCAYQAQNIVSLFVATRILFSHLDSVFTLNLDEQEPEVAERLSDLRRINENNPGMVTQVLTVARQIYNDYVTHHPGLTPEQTSAGAQAGGGGSGGGGSGGGGSPGQGTQSENSCTHFPGNLPNMLRDLRDAFSRVKTFFQMKDQLDNLLLKESLLEDFKGYLGCQALSEMIQFYLEEVMPQAENQDPDIKAHVNSLGENLKTLRLRLRRCHRFLPCENKSKAVEQVKNAFNKLQEKGIYKAMSEFDIFINYIEAYMTMKIRN
modifications: homodimer
hIL-10 in small intestinal lysates relative to colonic lysates [1]: ~10 fold higher
serum IL-1Ra ([1]; 4 h): significantly increased
plasma cytokines, MSD 10-plex, vs Vehicle [2]: no significant differences
hIL-10 and pSTAT3 in intestinal tissue [3]: extensive amounts of hIL-10 and a large number of cells that were positive for pSTAT3 within the Lamina propria
Dimer Purity (%) ([4]; No Sulfitolysis of SIB (97 mL Capto Q)): 84%
Dimer Purity (%) ([4]; Sulfitolysis of SIB (97 mL Capto Q)): 74%
robustness of protein to compaction, granulation and tableting (dimer purity) [5]: robust to compaction and granulation, although some aggregation was observed in final tablet form
earliest time of IL-10 payload transport into the Lamina propria [6]: 1 min
serum levels of the delivery construct ([7]; cynomolgus monkey, in vivo): below the assay detection limit
tissue IL-10 levels ([7]; within 15 min): dose-dependent and transient increases
aggregation during freeze/thaw or at 1 week at 4 °C (20 mg/mL, any condition tested): did not show any significant increases in aggregation
stability with respect to aggregation (initial lyophilization feasibility study): more stable at pH 7.5 with sucrose and glycine
plasma construct concentration relative to total IL-10 ([8]; 3 mg and 10 mg): 10 fold lower
time to detection of total IL-10 in plasma ([8]; 1, 3, 10 mg pan-colonic): ≤ 15 min
systemic IL-6 ([8]; 3 and 10 mg): moderately induced
systemic IFN-γ, IL-1β, IL-2, IL-8 ([8]; cynomolgus monkey, in vivo): did not lead to an increase
time of maximal plasma IL-1Ra ([8]; cynomolgus monkey, in vivo): 3 to 4 h
suppression of induction of plasma IL-4 (trend) [9]: 62%
suppression of induction of plasma IL-6 (trend) [9]: 61%
suppression of induction of plasma IL-12p70 (trend) [9]: 65%
suppression of induction of plasma KC/GRO (trend) [9]: 51%
plasma IL-1β and IL-2 vs Vehicle ([9]; p<0.05): significantly reduced
